One substance from US20180243665A1 can be followed below.

In assay [1] the target is monoclonal IgG antibody in clarified CHO cell supernatant. The assay is described as follows: affinity chromatography, 3-column PCC, 1.5 g/L mAb feed, 45% breakthrough, 0.5 min residence time.
For assay [2] the target is unchanged. In words: affinity chromatography, 3-column PCC, undiluted supernatant feed, 2.5 min residence time, column switch at 5% breakthrough.

In assay [1], “SpA variant ligands (tetramers of Zvar), covalently coupled via a C-terminal cysteine to crosslinked agarose beads (designed binder)” gave a dynamic capacity of 43 g/L. Also, in assay [2], the dynamic binding capacity was determined as 54 g/L.
